Source: the supplement of paper PMC10126150
± gives the standard deviation of the averaged measurements.

Test system: ATP
Assay: switch fluorescence ratio, 500 uM ATP over buffer (Cy3 cluster intensity, sum of 5 cycles each) (fold (ratio)); higher = stronger signal-on switching upon ATP binding; sequences stand for … in TCGTCGGCAGCGTCAGATGTGTATAAGAGACAGTTTTTTTTTTTTTTTTTTTTTTTTT…TC
Details: aptamer strand: ATP DNA aptamer (quencher-CACCTGGGGGAGTATTGCGGAGGAAGG + anchor), 100 nM annealed; ATP concentration: 500 uM
Method in brief: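 Exposure to 500 uM ATP lasted 15 min at 22 °C before imaging, and a selection-buffer image was taken beforehand, for Cy3-labelled switching-strand clusters on a modified Illumina MiSeq flow-cell annealed to 100 nM quencher-labelled ATP aptamer. Five buffer/ATP cycles were run with NaOH stripping and re-annealing between them. The fluorescence ratio per cluster is summed target-cycle over summed buffer-cycle Cy3 intensity, averaged per switch-domain sequence. Clusters outside 100-1000 RFU were excluded.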

Sequence | switch fluorescence ratio
TTACGGGCTT | 0.989 ± 0.027
CAGGCGTTGC | 1.17 ± 0.19
AGTTCGCTGT | 0.9889 ± 0.0067
TTGGTTCGTT | 0.994 ± 0.025
CAGGGTTGTT | 0.992 ± 0.026
TTTCAAAAT | 1.035 ± 0.0037
GGGAAAAGAT | 0.978 ± 0.042
GGATGGCGGA | 0.997 ± 0.024
GTGGGAAGTC | 0.965 ± 0.04
CGGGGCAAAG | 1.96 ± 1.6
CGATGGGAAA | 1.01 ± 0.014
ATATTTCTAA | 1.0113 ± 0.00013
AGGTAGTATT | 1.04 ± 0.012
GCATTAATCG | 1.01 ± 0.025
GCAGCCCCTG | 1.02 ± 0.048
ATATGTCGGT | 0.963 ± 0.013
TACTGTCTTG | 0.97 ± 0.014
ACAGGAGGTG | 1.13 ± 0.035
TCTAGGGGGT | 0.9766 ± 0.0071
TTATATTTCG | 1 ± 0.032
ACCGCAGGGG | 1.42 ± 0.6
TATGCAACTT | 0.993 ± 0.015
GGGGTTAAGA | 1.01 ± 0.08
ATTGTTTGAT | 1.01 ± 0.022
CGCCCTCTCC | 2.18 ± 0.23

Sequence | switch fluorescence ratio
GCATGTCTTG | 1 ± 0.028
AGATTAGGGG | 1.04 ± 0.041
GGTTTACGCT | 0.996 ± 0.027
ATTGCTGTTC | 1.03 ± 0.037
TCGGTGGGTG | 1.012 ± 0.0066
GAGGAGCTCG | 0.9522 ± 0.0045
AGGGACTGGG | 0.993 ± 0.038
GAGTTCGTTT | 1.02 ± 0.011
TTGGAGTCCC | 0.99 ± 0.022
CCTGGATATT | 0.997 ± 0.013
TGGGGATTAC | 0.983 ± 0.012
ATTTTAAGAG | 1.01 ± 0.02
GGCAGGGGTA | 0.995 ± 0.028
CGCATCAACG | 1.18 ± 0.087
GGGATTGGGG | 1 ± 0.012
CGTAGTATAT | 1.25 ± 0.043
TCAGTTATGG | 1.001 ± 0.0086
CATTTGGGTC | 1.013 ± 0.0038
GATTGAGGGA | 1.01 ± 0.016
ACTGTAGGGC | 1.04 ± 0.04
TGTAGTAAGT | 1.01 ± 0.06
CAGTTTAGTT | 0.987 ± 0.072
CTGAGTGCTT | 0.991 ± 0.0067
GGTTGTTGGA | 0.999 ± 0.0057
TGTGTTTTGT | 0.979 ± 0.02

Sequence | switch fluorescence ratio
CCAACTTTTT | 0.962 ± 0.014
TATTTGGTTA | 1.024 ± 0.006
TTAAAACCCC | 1.04 ± 0.054
TCGTTTTCGT | 0.9787 ± 0.009
ATCGGGGGTA | 0.982 ± 0.016
GGAGGGAGTT | 1.03 ± 0.049
GGGGGGCGAG | 0.9864 ± 0.0052
CGGCTGGGGG | 0.976 ± 0.014
GCACGGGGGA | 0.9884 ± 0.0077
CCTATGGTTG | 0.997 ± 0.033
TTAGAAATGT | 1.42 ± 0.84
GCGGGGCACA | 0.987 ± 0.022
TTAAACCTTG | 1.15 ± 0.042
GCCTCTGGTC | 0.992 ± 0.028
TTGATGTGTT | 1 ± 0.028
ACAGTTTTGG | 1.017 ± 0.0047
GTTGGGGCGT | 0.97 ± 0.044
TTGCTTCCAC | 1.08 ± 0.032
ACGTTGTGGA | 1.027 ± 0.0075
TCTGGTTGGG | 1.04 ± 0.064
TACCCGACTT | 1.13 ± 0.009
ATCTGTAGGG | 1.023 ± 0.0075
CAAGTTTGC | 1.08 ± 0.017
TGGCGGGGAG | 0.998 ± 0.021
GAGTTTGGTT | 0.98 ± 0.063

Sequence | switch fluorescence ratio
GTGGGTACGG | 1 ± 0.028
TTCAAGCGCT | 0.967 ± 0.019
GGGGTCTAGT | 1.01 ± 0.026
GGTATATAGG | 1.01 ± 0.027
TTCGCGAAAT | 1.027 ± 0.01
TTCAGTGGGT | 0.9787 ± 0.009
CATTTTACTT | 1.02 ± 0.035
ATGTACTCGC | 1.08 ± 0.031
TTTCGGTCGC | 1.003 ± 0.008
TCAGAGGGGC | 0.9913 ± 0.0095
TATCTGTGCT | 0.994 ± 0.019
GGTGGGGGAG | 1.01 ± 0.043
ATGGCAATTC | 2.51 ± 0.068
GTGGTGAGGC | 1.001 ± 0.0055
CTGGCGAGCG | 1.03 ± 0.011
ACGCATTCAT | 1.14 ± 0.027
GCTGGGGACG | 0.938 ± 0.084
AAGTGGGCCC | 0.983 ± 0.013
ATTATGAAAG | 0.969 ± 0.056
GAATTTAAGT | 1.009 ± 0.0048
CCTGAGGAGG | 0.997 ± 0.014
GGGGCTACTT | 1.02 ± 0.013
GCGCTTGGGA | 1.03 ± 0.056
TATTATACCT | 1.29 ± 0.053
TTACAAGGAT | 0.997 ± 0.012
